According to patent US20150203581A1 (Genentech, published 2015):
Substitutions are numbered along the chain they refer to. In names and notes the source's numbering stands. Where two headings read alike, the source gives them in different places.

Key:
[1] = biological target: T1, recombinant human integrin α5β1 (human, UniProt P08648 42-995; P05556 21-728); test: cell-based or functional assay
[2] = biological target: T1, recombinant human integrin α5β1; test: SPR (BIAcore), antibody as hIgG is the captured ligand, Human Integrin α5β1 (R&D) is the analyte
Procedure: (§1) To determine binding kinetics and affinities of the antibodies described herein, Surface Plasmon Resonance (SRP) measurement with a BIAcore™-3000 instrument was used. Antibody was first captured by pre-immobilized rabbit anti-human Fc CM5 biosensor chip on the different flow cell to achieve approximately 150 RU (Response Units). For kinetics measurements, 2-fold serial dilutions of human integrin α5β1 (300 nM to 1.2 nM) were injected in PBT buffer (PBS with 0.05% Tween 20) at 25° C. with a flow rate of 30 μl/min. Association rates (kₒₙ) and dissociation rates (koff) were calculated using a simple one-to-one Langmuir binding model (BIAcore Evaluation Software version 3.2). The equilibrium dissociation constant (KD) was calculated as the ratio koff/kₒₙ.
(§2) To determine binding kinetics and affinities of chimeric 18C12, h18C12.v6.1, h18C12.v6.1.1, h18C12.v6.1.2, h18C12.v6.1.3, h18C12.v6.1.4, h18C12.v6.1.5 IgGs, Surface Plasmon Resonance (SRP) measurement with a BIAcore™-3000 instrument as described in Example 1 was used.

[3] = biological target: T1, recombinant human integrin α5β1; test: SPR (BIAcore), IgG captured on anti-human Fc chip, Human Integrin α5β1 (R&D) as analyte
Procedure: as §1, §2

[4] = biological target: T1, recombinant human integrin α5β1; test: SPR (BIAcore), antibody as hIgG is the captured ligand, Human Integrin α5β1 (R&D) is the analyte; remark: listed apart in the source
Procedure: as §1

[5] = biological target: T1, recombinant human integrin α5β1; test: phage competition ELISA: Fab-displaying phage pre-incubated with serially diluted soluble human integrin α5β1, unbound phage captured on plate-coated human integrin α5β1, anti-M13-HRP detection
Procedure: MAXISORP™ microtiter plates were coated with recombinant human integrin β5β1 (R&D) at 5 μg/ml in PBS overnight and then blocked with PBST buffer (0.5% BSA and 0.05% Tween 20 in PBS) for an hour at room temperature. Phage from culture supernatants were incubated with serially diluted human integrin α5β1 in PBST buffer in a tissue-culture microtiter plate for an hour, after which 80 μl of the mixture was transferred to the target-coated wells for 15 minutes to capture unbound phage. The plate was washed with PBT buffer (0.05% Tween 20 in PBS), and HRP-conjugated anti-M13 (Amersham Pharmacia Biotech) was added (1:5000 in PBST buffer) for 40 minutes. The plate was washed with PBT buffer and developed by adding tetramethylbenzidine substrate (Kirkegaard and Perry Laboratories, Gaithersburg, Md.). The absorbance at 450 nm was plotted as a function of target concentration in solution to determine phage IC₅₀.

[6] = biological target: T1, recombinant human integrin α5β1; test: BIAcore SPR, IgG captured by anti-human Fc, human integrin α5β1 as analyte
Procedure: as §1, §2

[7] = biological target: T1, recombinant human integrin α5β1; test: cell-based or functional assay; remark: listed apart in the source
[8] = biological target: T2, recombinant α5β1 extracellular domain; test: blocking ELISA: antibody titrated and premixed with recombinant α5β1 (R&D), then added to fibronectin-coated wells; bound α5β1 detected with anti-β1-biotin / streptavidin-HRP (OD450); the blocked ligand is fibronectin
T2 construct: extracellular domain; also called α5β1 (R & D Systems)
T2 sequence (P08648 42-995, chain 1 of 2): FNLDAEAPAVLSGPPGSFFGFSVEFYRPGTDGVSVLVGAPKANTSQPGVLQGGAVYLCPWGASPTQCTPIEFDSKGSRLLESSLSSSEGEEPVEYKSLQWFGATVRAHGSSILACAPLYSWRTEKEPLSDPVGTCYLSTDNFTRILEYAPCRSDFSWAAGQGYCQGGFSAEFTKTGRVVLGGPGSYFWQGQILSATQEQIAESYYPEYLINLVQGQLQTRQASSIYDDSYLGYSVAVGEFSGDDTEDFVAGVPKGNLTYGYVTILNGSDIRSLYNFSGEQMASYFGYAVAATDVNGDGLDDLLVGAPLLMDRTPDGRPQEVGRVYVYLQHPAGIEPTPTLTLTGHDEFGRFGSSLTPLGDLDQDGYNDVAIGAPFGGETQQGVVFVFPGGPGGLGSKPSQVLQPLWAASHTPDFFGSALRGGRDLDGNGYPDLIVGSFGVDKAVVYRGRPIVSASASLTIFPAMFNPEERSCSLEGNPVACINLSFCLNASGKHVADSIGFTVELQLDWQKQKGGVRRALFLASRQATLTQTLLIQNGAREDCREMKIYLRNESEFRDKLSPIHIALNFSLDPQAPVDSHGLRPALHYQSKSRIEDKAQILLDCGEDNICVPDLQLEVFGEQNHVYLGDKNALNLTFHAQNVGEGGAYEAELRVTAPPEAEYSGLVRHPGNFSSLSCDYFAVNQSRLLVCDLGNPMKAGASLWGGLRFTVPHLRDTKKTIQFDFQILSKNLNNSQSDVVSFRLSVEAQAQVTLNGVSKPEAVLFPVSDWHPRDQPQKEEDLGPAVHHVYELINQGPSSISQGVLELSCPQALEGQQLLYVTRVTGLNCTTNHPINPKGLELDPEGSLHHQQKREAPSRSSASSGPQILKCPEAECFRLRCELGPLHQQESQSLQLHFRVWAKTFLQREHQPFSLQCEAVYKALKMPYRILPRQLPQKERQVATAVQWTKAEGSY
T2 sequence (P05556 21-728, chain 2 of 2, further chain): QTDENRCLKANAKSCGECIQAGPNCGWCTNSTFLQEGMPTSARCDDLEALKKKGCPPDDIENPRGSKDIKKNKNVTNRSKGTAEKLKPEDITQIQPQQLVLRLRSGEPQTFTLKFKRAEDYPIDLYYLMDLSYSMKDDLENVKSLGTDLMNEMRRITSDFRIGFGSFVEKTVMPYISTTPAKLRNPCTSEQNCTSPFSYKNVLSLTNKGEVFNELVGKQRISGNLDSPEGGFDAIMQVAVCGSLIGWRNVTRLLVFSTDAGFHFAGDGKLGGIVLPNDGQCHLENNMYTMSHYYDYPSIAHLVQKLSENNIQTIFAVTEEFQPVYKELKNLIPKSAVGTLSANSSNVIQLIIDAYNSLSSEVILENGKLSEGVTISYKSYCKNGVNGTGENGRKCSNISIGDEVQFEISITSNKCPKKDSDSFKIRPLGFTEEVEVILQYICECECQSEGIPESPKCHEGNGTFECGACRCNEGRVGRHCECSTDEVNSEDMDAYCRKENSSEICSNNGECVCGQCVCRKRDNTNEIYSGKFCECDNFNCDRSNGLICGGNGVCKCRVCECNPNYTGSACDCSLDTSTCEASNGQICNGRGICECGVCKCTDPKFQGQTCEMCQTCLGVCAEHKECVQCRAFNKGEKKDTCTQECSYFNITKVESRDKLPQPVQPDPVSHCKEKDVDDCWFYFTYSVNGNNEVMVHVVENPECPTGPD
Procedure: anti-β5β1 antibody (30 μg/mL) was serially diluted 1:3 11 times. 50 μl of the serially diluted anti-β5β1 antibody was added to 0.65 mL micro tubes and premixed (1:1) with 50 μL of 200 ng/mL […] (R & D Systems) in ELISA buffer (150 mM NaCl, 10 mM Tris, pH 7.5, 5 mg/mL BSA, 1 mM MnCl₂) for 60 minutes at room temperature with gentle agitation. 25 μL of the premixed α5β1 and anti-β5β1 antibody was added to the Fibronectin coated wells and the plates were incubated at room temperature for 60 minutes with gentle agitation. Plates were washed 6 times with PBT buffer, 100 ng/mL anti-β1-biotin in ELISA buffer was added to each well and the plates were incubated for 60 minutes at room temperature with gentle agitation. Plates were washed 6 times with 80 μL PBT buffer, 25 μL of Streptadvidin-HRP (1:50,000 in ELISA buffer, GE Healthcare) was added to each well, and the plates were incubated for 60 minutes at room temperature with gentle agitation. Plates were washed 6 times with 80 μL PBT buffer, 25 μl of TMB substrate (Kirkgaard and Perry Laboratories) was added to each well, plates were incubated about 6 minutes at room temperature, and the reaction was stopped with 25 μL of 1 M Phosphoric Acid. Absorbance was read at 450 nm and IC₅₀ values were analyzed as described in section B above. […]

T1 sequence (P08648 42-995 limits assumed, chain 1 of 2): as the sequence (P08648 42-995, chain 1 of 2) above
T1 sequence (P05556 21-728 limits assumed, chain 2 of 2): as the sequence (P05556 21-728, chain 2 of 2, further chain) above

B1: chimeric 18C12 (antibody, V domains shown)
VH: EVHLVESGGDLVQPGSSLKLSCAASGFTFSNRWIYWVRQAPGKGLEWVGGIKTKPNIYATEYADSVKGRFTISRDDSKNSLYLQMNTLRVDDTAIYYCTSLTGMRYFDYWGQGT
VL: QPVLTQSPSASASLGNSVKITCTLSSQHSTYTIGWYQQHPDKAPKYVMYLNSDGSHNKGDGIPDRFSGSSSGAHRYLSISNIQPEDEADYFCGSSYSSGYVFGSGT
notes: also called chimeric 18C12 IgG
For B1, the “IC50 for inhibition of adhesion of U937 cells to plate-coated fibronectin (Cell-Titer Glo luminescence); the target is α5β1 on the U937 cells” value (from here on “IC50 for inhibition”) [1] was 0.159 nM, the Kd [2] was 7.68 nM and the koff [2] was 0.000922 s⁻¹. It also gave a kon [2] of 120000 M⁻¹ s⁻¹.

B2: h18C12.v6.1.2 (antibody, V domains shown)
VH: EVQLVESGGGLVQPGGSLRLSCAASGFTFSARWIYWVRQAPGKGLEWVGGIKTKPAIYATEYADSVKGRFTISRDDSKNTLYLQMNSLRAEDTAVYYCARLTGMKYFDYWGQGT
VL: SSELTQDPAVSVALGQTVRITCTLSSQHSTYTIGWYQQKPGQAPVYLMYLNSDGSHNKGSGIPDRFSGSSSGATRSLTITNAQAEDEADYYCAAYYAYGYVFGGGT
notes: copies: 2 + 2
B2 showed a Kd [3] of 13.5 nM, a koff [3] of 0.000643 s⁻¹ and a kon [3] of 48000 M⁻¹ s⁻¹.

B3: h18C12.v3 (Fab, V domains shown)
VH: B2 VH with A31N, A56N, K105R
VL: EPVLTQSPSASASLGASVKLTCTLSSQHSTYTIGWYQQQPGKAPRYLMYLNSDGSHNKGDGIPDRFSGSSSGADRYLTISNLQSEDEADYYCGSSYSSGYVFGGGT
notes: also called Humanized 18C12.v3; h18C12.v3 parental clone
In the case of B3, the Kd [4] is reported as 11.5 nM, the koff [4] is reported as 0.000807 s⁻¹ and the kon [4] is reported as 71000 M⁻¹ s⁻¹. For the same binder, the IC50 [5] was 0.72 nM.

B4: h18C12.v6 (Fab, V domains shown)
VH: B2 VH with A31N, A56N
VL: B3 VL with G93A, S94A, S95Y, S97A, S98Y
In the case of B4, the Kd [4] is reported as 4.8 nM, the koff [4] is reported as 0.00075 s⁻¹ and the kon [4] is reported as 174000 M⁻¹ s⁻¹. For the same binder, the IC50 [5] was 0.41 nM.

B5: h18C12.v6.1Lam3 (antibody, V domains shown)
VH: B2 VH
VL: B2 VL with D53S
notes: CDRs come from h18C12.v6 with changes in CDR-L2 (D50cS, D56S), CDR-H1 (N31A) and CDR-H2 (N53A); The human λIII framework carries L46Y, V47L, I48M, N69A, A71R and G77N
In the case of B5, the “IC50 for inhibition” value [1] is reported as 0.207 nM, the “fold higher binding affinity than hamster 18C12” value [6] is reported as about 2 fold and the Kd [2] is reported as 4 nM. For the same binder, the koff [2] was 0.000386 s⁻¹ and the kon [2] was 97000 M⁻¹ s⁻¹.

B6: h18C12.v6.1.5 (antibody, V domains shown)
VH: B2 VH
VL: B2 VL with G54S
notes: Derived from h18C12.v6.1 by removing Asn in CDR-L2 positions 50a-50d; also called anti-α5β1 antibody h18C12.v6.1.5
For B6, the “IC50 for inhibition” value [7] was 0.126 nM, the Kd [3] was 15.5 nM and the koff [3] was 0.000659 s⁻¹. The kon [3] was 43000 M⁻¹ s⁻¹ and the IC50 [8] was 0.077 nM.
